Source: US12582683B2, “Prostate neoantigens and their uses” (Jansen Biotech, Inc., priority 2019, dated 2026)

Legend:
[1] = tested on: CD8+ T cells in PBMCs from patients with metastatic castrate-resistant prostate cancer; experiment: Patient PBMC restimulation assay (in vitro immunogenicity of neoantigens); assay type: cell-based, human; parameters: Maximum frequency of TNFα+IFNγ+CD8+ T cells: unit not given here; details: for Maximum fold change over: fold change over negative control, highest across the PBMC donors evaluated, 9 mer peptide; for Maximum frequency of TNFα+IFNγ+CD8+ T cells: greatest frequency among all tested PBMC donors, negative control 0.011-0.8
Experimental: In Vitro Immunogenicity Assessment of Neoantigens (“Patient PBMC Restimulation Assay”)
PBMCs from human patients with metastatic castrate-resistant prostate cancer were thawed using media (RPMI 1640 supplemented with Glutamax, 10% HI FBS, and 1× Sodium Pyruvate). Cells were counted and plated in a 96 well round bottom microplate at a concentration of 250,000 viable cells per well. Lyophilized peptides were solubilized in 100% DMSO and diluted in media to 10 μg/mL. Neoantigen peptides were added in equal volume to PBMCs for a final concentration of 5 μg/mL. CEF Peptide Pool “Plus” (Cellular Technologies, Ltd.) was utilized as a positive control and DMSO at the same final concentration as the experimental peptides was utilized as a negative control. Human IL-15 (Peprotech) was added to all wells at final concentration of 10 ng/mL.
Plates were incubated at 37° C. (5% CO2) for a total of 13 days. Media was refreshed every 2 days with IL-15 (10 ng/mL final concentration) and IL-2 (R&D systems, 10 IU/mL final concentration). On day 12, PBMCs were re-stimulated with identical experimental peptides or controls, at same concentration as peptide stimulation on Day 1. After 1-hour incubation, protein Inhibitor Cocktail (eBioscience) was added to every well and plate was incubated overnight.
On day 13, cells were stained for intracellular flow cytometry analysis. The cells were washed with PBS and stained with Live/Dead Fixable Aqua Dead Cell stain (Thermo-Fisher). Following the live/dead stain, cells were blocked using Biotin-Free Fe Receptor Blocker (Accurate Chemical & Scientific Corp). Extracellular cellular flow panel (1 μL/antibody per well in 50 μL) consisted of CD3 PerCP-Cy5.5 (Biolegend), CD4 BV421 (Biolegend), and CD8 APC-Cy7 (Biolegend). After extracellular staining, cells were fixed using Foxp3/Transcription Factor Staining Buffer Set (eBioscience) and stained for intracellular proteins (1:50 dilution) using TNFα FITC (R&D Systems) and IFNγ BV785 (Biolegend). Cells were washed and resuspended in stain buffer and analyzed using a BD Celesta flow cytometer.
Flow cytometry cell staining analysis was completed using FlowJo v10. Cells were gated on live, singlet, CD3+ cells. The CD8+ T cells were analyzed for TNFα/IFNγ expression and the frequency of double positive TNFα/IFNγ CD8+ T cells was recorded. Responses were assessed to be positive when the frequency of double positive TNFα/IFNγ CD8+ T cells due to stimulation with an experimental peptide was increased greater than or equal to 2-fold over the DMSO only negative control for that patient. Peptides were analyzed in 1 to 7 patient samples.
The 9 mer fragments shown in Table 13 were assessed for their ability to activate T cells using the Patient PBMC restimulation assay described in Example 1 using TNFα and IFNγ production by CD8^+ T cells as a readout. Self-antigens shown in Table 15 were also used in the assays. […] PBMCs from ten patients were evaluated.

HLA-A*01:01 = HLA-A*01:01 (Homo sapiens, UniProt P04439, A114D/A174V/A182V/D101N/D185E/E176A/E190D/L180R/Q94H/R68K/S129P/T187R/V100A/V91M/W191G); experiment: In vitro binding of neoantigens to class I MHC (UV peptide exchange, HLA class I ELISA); details: 100% = same binding affinity as positive control peptide
Experimental: (§1) In Vitro Binding of Neoantigens to Class I MHC
(§2) The 9 mer peptides identified by bioinformatics analysis were analyzed for their binding propensities to 6 common HLA class I alleles (HLA-A*01:01, A*02:01, A*03:01, A*24:02, B*07:02, B*08:01). The principle of the method is briefly described below and consists of two parts, one involving exchange of peptide with a positive control induced by Ultraviolet (UV) radiation, and the second is an enzyme immunoassay to detect stable HLA-peptide and empty HLA complexes.
(§3) HLA-bound peptides are critical for the stability of the HLA complex.
(§4) The exchange efficiency between the peptide of interest and Pos was analyzed using an HLA class I ELISA. The combined technologies allowed the identification of ligands for an HLA molecule of interest which are potentially immunogenic.
(§5) The UV control represented UV-irradiation of conditional HLA class I complex in the absence of a rescue peptide. […] To this end streptavidin was bound onto polystyrene microtiter wells. After washing and blocking, HLA complex present in exchange reaction mixtures or ELISA controls was captured by the streptavidin on the microtiter plate via its biotinylated heavy chain. Non-bound material was removed by washing. Subsequently, horseradish peroxidase (HRP)-conjugated antibody to human B2M was added. […] In the latter case B2M was removed during the washing step. After removal of non-bound HRP conjugate by washing, a substrate solution was added to the wells. A coloured product formed in proportion to the amount of intact HLA complex present in the samples. After the reaction was terminated by the addition of a stop solution, absorbance was measured in a microtiter plate reader. […] Suboptimal HLA binding of peptides with a moderate to low affinity for HLA class I molecules can also be detected by this ELISA technique (Rodenko, B et al. (2006) Nature Protocols 1: 1120-32).
(§6) Binding of select neoepitopes to HLA-A*01:01, HLA-A* 02:01, HLA-A* 03:01, HLA-A*24:02, HLA-1B*07:02 and HLA-1B*08:01 was evaluated using the assay described in Example 1. […] As a criterion for further evaluation, peptides with an exchange rate of at least 10% with the corresponding Pos peptide for at least one of the 6 HLA alleles that we considered for further evaluation. […] Higher percentages correspond to stronger binding to the HLA allele.

HLA-A*02:01 = HLA-A*02:01 (Homo sapiens, UniProt P04439, D140Y/D185E/D98H/E176V/E277Q/G131W/G231S/I119V/I121R/I166T/I218V/L300P/L318F/N151K/N90K/P208A/P217A/Q86G/Q94H/R138H/R169H/T345S); experiment: as above; details: 100% = same binding affinity as positive control peptide
Experimental: as §1, §2, §3, §4, §5, §6

HLA-A*03:01 = HLA-A*03:01 (Homo sapiens, UniProt P04439); experiment: as above; details: 100% = same binding affinity as positive control peptide
Experimental: as §1, §2, §3, §4, §5, §6

HLA-A*24:02 = HLA-A*24:02 (Homo sapiens, UniProt P04439, D101N/D140Y/D185E/E176V/E190D/F33S/G103R/G107R/I119L/I121M/I306V/K335N/L105A/L180Q/L300P/N151K/N90K/Q86E/Q94H/R106L/R138H/R89G/T104I/T345S/V100E/W191G/Y123F); experiment: as above; details: 100% = same binding affinity as positive control peptide
Experimental: as §1, §2, §3, §4, §5, §6

HLA-B*07:02 = HLA-B*07:02 (Homo sapiens, UniProt P01889); experiment: as above; details: 100% = same binding affinity as positive control peptide
Experimental: as §1, §2, §3, §4, §5, §6

In the case of “CYLRRQKRLKCEKQPGA (listed as Homo sapiens) [Neoantigen P60, FOXA1.p.F266L]”, the “Maximum fold change over” value [1] is reported as 2.08, the “Maximum frequency of TNFα+IFNγ+CD8+ T cells” value (“Maximum frequency” below) [1] is reported as 0.340 and the “Exchange rate with Pos peptide, HLA-A*01:01” value (from here on “Exchange rate … HLA-A*01:01”) (HLA-A*01:01) is reported as 3.1%. The “Exchange rate with Pos peptide, HLA-A*02:01” value (shortened to “Exchange rate … HLA-A*02:01”) (HLA-A*02:01) was 7.9%, the “Exchange rate with Pos peptide, HLA-A*03:01” value (“Exchange rate … HLA-A*03:01” below) (HLA-A*03:01) was 36.6% and the “Exchange rate with Pos peptide, HLA-A*24:02” value (“Exchange rate … HLA-A*24:02” for short) (HLA-A*24:02) was 0.9%. For the same sequence, the “Exchange rate with Pos peptide, HLA-B*07:02” value (from here on “Exchange rate … HLA-B*07:02”) (HLA-B*07:02) was 6.1%.

For “DDRNTFDIVWWCPMSRLRLALTVPPSTTTTCVTVPAWAA [P46] (listed as Homo sapiens) [Neoantigen P46, TP53 (R213D)]”, the “Maximum fold change over” value [1] was 2.33, the “Maximum frequency” value [1] was 0.140 and the “Exchange rate … HLA-A*02:01” value (HLA-A*02:01) was 14.4%. For the same sequence, the “Exchange rate … HLA-A*03:01” value (HLA-A*03:01) was 10.3%, the “Exchange rate … HLA-A*24:02” value (HLA-A*24:02) was −0.4% and the “Exchange rate … HLA-B*07:02” value (HLA-B*07:02) was 64.8%.

With “DSSGNLLERNSFEVRV (listed as Homo sapiens) [Neoantigen P73, TP53 (G266E)]” the “Maximum fold change over” value [1] was 2.97, the “Maximum frequency” value [1] was 0.110 and the “Exchange rate … HLA-A*01:01” value (HLA-A*01:01) was 2.1%. The “Exchange rate … HLA-A*02:01” value (HLA-A*02:01) was 89.2%, the “Exchange rate … HLA-A*03:01” value (HLA-A*03:01) was 3.5% and the “Exchange rate … HLA-A*24:02” value (HLA-A*24:02) was 0.5%. The “Exchange rate … HLA-B*07:02” value (HLA-B*07:02) was 8.7%.

In the case of “GVPGDSTRRAVRRMNTF [P17] (listed as Homo sapiens) [Neoantigen P17, MSMB-NOCA4]”, the “Maximum frequency” value [1] is reported as 0.130, the “Exchange rate … HLA-A*01:01” value (HLA-A*01:01) is reported as 4.9% and the “Exchange rate … HLA-A*03:01” value (HLA-A*03:01) is reported as 3.8%. The “Exchange rate … HLA-A*24:02” value (HLA-A*24:02) was 0.1% and the “Exchange rate … HLA-B*07:02” value (HLA-B*07:02) was 38.7%.

In the case of “GYLRMQGLMAQRLLLR (listed as Homo sapiens) [Neoantigen P97, FOXRED2-TXN2]”, the “Maximum fold change over” value [1] is reported as 4.55, the “Maximum frequency” value [1] is reported as 0.160 and the “Exchange rate … HLA-A*01:01” value (HLA-A*01:01) is reported as 2.5%. For the same sequence, the “Exchange rate … HLA-A*02:01” value (HLA-A*02:01) was 4.6%, the “Exchange rate … HLA-A*03:01” value (HLA-A*03:01) was 39% and the “Exchange rate … HLA-A*24:02” value (HLA-A*24:02) was 0.1%. The “Exchange rate … HLA-B*07:02” value (HLA-B*07:02) was 7%.

In the case of “LHPDSGNMVENGCYLRR (listed as Homo sapiens) [Neoantigen P59, FOXA1 (F254V)]”, the “Maximum fold change over” value [1] is reported as 10.75 and the “Maximum frequency” value [1] is reported as 3.010.

“LHPQRETFTPRWSGANYWKLAFPVGAEGTFPAAATQRGVVRPA (listed as Homo sapiens) [Neoantigen P27, FAM126B-ORC2]” was tested, and the “Maximum fold change over” value [1] was 3.43 and the “Maximum frequency” value [1] was 0.430.

For “MAGGVLRRLLCREPDRDGDKGASREETVVPLHIGDPVVLPGIGQCYSALF (listed as Homo sapiens) [Neoantigen P37, TSTD1-F11R]”, the “Maximum fold change over” value [1] was 3.13 and the “Maximum frequency” value [1] was 1.160.
